Test [1] concerns the target T1, full-length beta-Catenin (Uniprot ID P35222) (Homo sapiens (Human), UniProt P35222 2-781).
T1 construct: No tag is stated for the FP assay; also called bCat; B-Catenin
T1 sequence: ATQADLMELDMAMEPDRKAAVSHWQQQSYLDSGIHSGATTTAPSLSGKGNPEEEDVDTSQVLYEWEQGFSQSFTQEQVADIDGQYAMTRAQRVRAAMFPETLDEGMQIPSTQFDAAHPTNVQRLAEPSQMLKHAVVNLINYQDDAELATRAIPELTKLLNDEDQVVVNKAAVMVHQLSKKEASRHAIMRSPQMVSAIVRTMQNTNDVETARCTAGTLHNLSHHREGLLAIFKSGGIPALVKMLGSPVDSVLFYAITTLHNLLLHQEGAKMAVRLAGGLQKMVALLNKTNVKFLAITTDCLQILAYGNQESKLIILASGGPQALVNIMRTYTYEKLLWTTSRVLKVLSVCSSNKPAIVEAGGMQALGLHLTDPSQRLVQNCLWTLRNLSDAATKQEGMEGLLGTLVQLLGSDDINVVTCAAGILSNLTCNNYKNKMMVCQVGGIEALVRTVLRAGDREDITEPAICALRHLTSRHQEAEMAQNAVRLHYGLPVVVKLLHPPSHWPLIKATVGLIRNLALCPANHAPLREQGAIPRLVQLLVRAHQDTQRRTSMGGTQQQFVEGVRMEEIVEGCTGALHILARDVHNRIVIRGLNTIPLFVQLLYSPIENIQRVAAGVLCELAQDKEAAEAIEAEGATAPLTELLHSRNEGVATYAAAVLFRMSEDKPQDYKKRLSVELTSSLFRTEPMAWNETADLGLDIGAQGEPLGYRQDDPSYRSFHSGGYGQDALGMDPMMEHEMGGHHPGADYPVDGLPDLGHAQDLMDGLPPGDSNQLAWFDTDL
Description: fluorescence polarization competition; full-length beta-catenin with 5FAM-TCF4(10-53) probe as competitor. The protocol:
(§1) The plate was incubated protected from light for 60 minutes at 20° C. prior to read. Reads were performed on a CLARIOstar plate reader (BMG Labtech) in duplicate, and data were fitted to a 1:1 binding model with hill slope using an in-house script. All provided concentrations are final concentrations.
In general terms: In fluorescence polarisation assays a small probe gives low polarisation when free and higher when bound to something large.

Test [2] concerns the target T2, full-length beta-Catenin (Uniprot ID P35222) (Homo sapiens (Human), UniProt P35222 2-781).
T2 construct: the AlphaScreen assay uses a Histidine (Nickel Chelate) detection kit, so a His tag is likely there; also called B-Catenin; bCat
T2 sequence: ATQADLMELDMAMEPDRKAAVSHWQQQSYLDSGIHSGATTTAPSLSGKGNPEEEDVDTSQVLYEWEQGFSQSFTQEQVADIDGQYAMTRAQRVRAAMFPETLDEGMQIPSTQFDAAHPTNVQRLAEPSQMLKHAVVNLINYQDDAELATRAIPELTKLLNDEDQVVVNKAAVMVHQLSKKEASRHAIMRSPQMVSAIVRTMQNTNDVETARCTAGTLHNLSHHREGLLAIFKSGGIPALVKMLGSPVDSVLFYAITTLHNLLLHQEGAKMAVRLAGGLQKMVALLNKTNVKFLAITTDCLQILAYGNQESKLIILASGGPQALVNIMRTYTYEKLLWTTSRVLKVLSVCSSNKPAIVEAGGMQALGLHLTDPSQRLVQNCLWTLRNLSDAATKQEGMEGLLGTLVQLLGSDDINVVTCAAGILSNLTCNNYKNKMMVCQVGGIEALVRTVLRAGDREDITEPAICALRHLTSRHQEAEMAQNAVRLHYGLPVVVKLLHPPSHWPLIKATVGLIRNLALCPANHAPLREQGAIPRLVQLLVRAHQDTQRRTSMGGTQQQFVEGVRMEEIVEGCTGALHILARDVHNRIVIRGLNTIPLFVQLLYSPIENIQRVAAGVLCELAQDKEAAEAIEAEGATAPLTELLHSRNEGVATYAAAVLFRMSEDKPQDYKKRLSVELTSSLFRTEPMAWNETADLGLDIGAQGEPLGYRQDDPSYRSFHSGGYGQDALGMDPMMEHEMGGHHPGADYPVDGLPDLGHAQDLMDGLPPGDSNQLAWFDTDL
Description: AlphaScreen competition; full-length beta-catenin with biotin-TCF4(10-53) probe as competitor. On the procedure:
Equal volume of the titrated peptide was added to the plate and incubated for 15 minutes at 20° C. Then 4 uL of donor and 4 uL acceptor beads at 10 ug/mL were added to the plate, for a 16 uL reaction pool and protected from light for 60 minutes at 20° C. prior to read. Reads were performed on a CLARIOstar plate reader (BMG Labtech) in duplicate, and data were fitted to a 1:1 binding model with hill slope using an in-house script. All provided concentrations are final concentrations.
For orientation: Alpha assays give light when donor and acceptor beads are brought close together.

The target in test [3] is T2, full-length beta-Catenin (Uniprot ID …). Description: fluorescence polarization competition; full-length beta-catenin with 5FAM-TCF4(10-53) probe as competitor. The protocol:
as §1

The target of test [4] is T3, B-cat-Halo (UniProt P35222 1-781).
T3 sequence (looked up): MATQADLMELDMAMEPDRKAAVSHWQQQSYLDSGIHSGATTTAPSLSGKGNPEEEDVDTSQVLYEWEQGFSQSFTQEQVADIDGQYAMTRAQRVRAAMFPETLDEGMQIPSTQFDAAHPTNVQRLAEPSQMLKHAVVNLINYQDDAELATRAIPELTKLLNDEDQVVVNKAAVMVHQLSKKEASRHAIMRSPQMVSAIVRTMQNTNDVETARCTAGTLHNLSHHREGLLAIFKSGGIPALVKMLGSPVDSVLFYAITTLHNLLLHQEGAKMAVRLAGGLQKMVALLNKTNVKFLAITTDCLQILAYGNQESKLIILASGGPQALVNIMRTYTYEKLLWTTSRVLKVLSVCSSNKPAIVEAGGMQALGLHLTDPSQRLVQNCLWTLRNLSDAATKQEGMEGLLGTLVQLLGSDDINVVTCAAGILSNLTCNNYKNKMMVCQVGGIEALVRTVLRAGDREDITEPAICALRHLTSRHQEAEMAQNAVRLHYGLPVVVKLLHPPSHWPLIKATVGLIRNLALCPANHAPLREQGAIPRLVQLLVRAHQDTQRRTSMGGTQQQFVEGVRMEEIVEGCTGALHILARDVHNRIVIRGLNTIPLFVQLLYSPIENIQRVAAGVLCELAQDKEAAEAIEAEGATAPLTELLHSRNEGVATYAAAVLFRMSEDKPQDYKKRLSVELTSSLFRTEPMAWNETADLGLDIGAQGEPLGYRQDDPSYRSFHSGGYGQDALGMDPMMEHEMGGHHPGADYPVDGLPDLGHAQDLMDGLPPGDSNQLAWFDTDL
Description: cell-based or functional assay.

The text below walks through data of patent US20240116985A1 (published 2024).

Starred links: 1 amine or outer side, 2 acyl side, 3 side chain; linkers in the order of their positions; H or OH if unused. Positions of bridges follow the written chain, without caps; N, C: chain ends. Non-standard residues stand in square brackets, D forms with d. Primed or numbered codes have the meaning given here. PyrS2″ = (S)-3-amino-1-((pent-4-en-1-yloxy)carbonyl)pyrrolidine-3-carboxylic acid (stapling residue), C=CCCCOC(=O)N1CC[C@@](N[*:1])(C(=O)[*:2])C1; RdN(3) = (R)-4-(((allyloxy)carbonyl)(methyl)amino)-2-amino-2-methylbutanoic acid, stapling residue, C=CCOC(=O)N(C)CC[C@@](C)(N[*:1])C(=O)[*:2]; RdN″ = (R)-4-(((allyloxy)carbonyl)(methyl)amino)-2-amino-2-methylbutanoic acid (stapling residue), C=CCOC(=O)N(C)CC[C@@](C)(N[*:1])C(=O)[*:2]; B5(17) = 2,2-bis(4-pentenyl)glycine = 2-amino-2-(pent-4-en-1-yl)hept-6-enoic acid, stitching residue, C=CCCCC(CCCC=C)(N[*:1])C(=O)[*:2]; B5(5) = 2,2-bis(4-pentenyl)glycine, 2-amino-2-(pent-4-en-1-yl)hept-6-enoic acid (stitching residue), C=CCCCC(CCCC=C)(N[*:1])C(=O)[*:2]; B5(6) = 2-amino-2-(pent-4-en-1-yl)hept-6-enoic acid (bis(4-pentenyl)glycine), stitching residue, C=CCCCC(CCCC=C)(N[*:1])C(=O)[*:2]; B5(3) = 2,2-bis(4-pentenyl)glycine (stitching residue), C=CCCCC(CCCC=C)(N[*:1])C(=O)[*:2]; S7 = C[C@@](CCCCCC=[*:3])(N[*:1])C(=O)[*:2]; Bta = N[C@@H](Cc1csc2ccccc12)C(=O)O; αAllylPro = C=CC[C@@]1(C(=O)O)CCCN1; tBuAla = CC(C)(C)C[C@H](N)C(=O)O; 3Thi = N[C@@H](Cc1ccsc1)C(=O)O; Cit = NC(=O)NCCC[C@H](N)C(=O)O; S8 = C=CCCCCCC[C@](C)(N)C(=O)O; hSer = N[C@@H](CCO)C(=O)O

By IC50 is commonly meant the point on the concentration scale where inhibition reaches its midpoint. Low values mean greater potency, high ones weaker potency. For orientation: EC50 means the concentration at which the effect is half-maximal. The low end stands for a more potent agent, the high end for a less potent agent.

B1: I-496 (peptide)
peptide: Ac-[αAllylPro]DA[B5(17)][hSer]EAAFQ[S8]F[Bta]Q-NH2
modifications: staple 1-4, 4-11; not fully specified; printed as Ac-PL3-Asp-Ala-B5-Hse-Glu-Ala-Ala-Phe-Gln-S8-Phe-BztA-Gln-NH2
notes: Stapled peptide; this is the first eluting HPLC peak (staple isomer composition)
B1: the IC50 in test [1] is 5000 nM.

B2: I-497 (peptide)
peptide: Ac-[αAllylPro]DA[B5(6)][hSer]EAAFQ[S8]F[Bta]Q-NH2
modifications: staple 1-4, 4-11; not fully specified; printed as Ac-PL3-Asp-Ala-B5-Hse-Glu-Ala-Ala-Phe-Gln-S8-Phe-BztA-Gln-NH2
notes: Stapled peptide; this is the second eluting HPLC peak (staple isomer composition)
Consider B2, for which the IC50 in test [1] turned out to be 5000 nM.

B3: I-491 (peptide)
peptide: Ac-[αAllylPro]DA[B5(17)]DEAAFQ[S8]F[Bta][hSer]-NH2
modifications: staple 1-4, 4-11; also: earlier eluting HPLC peak, E/Z not assigned
notes: Stapled peptide; this is the earlier eluting HPLC peak (staple isomer composition)
Turning to B3, in test [1], the IC50 was 153 nM.

B4: I-155 (peptide)
peptide: ADIXDEAAFAXFWA
modifications: not fully specified; as printed: Ac-Ala-Asp-Ile-RdN-Asp-Glu-Ala-Ala-Phe-Ala-S7-Phe-Trp-Ala-NH2; N-terminal acetyl, C-terminal amide; RdN(4), S7(11); staple RdN-S7 by olefin metathesis
notes: stapled peptide
Take B4: the results for the EC50 in test [2] and in test [3] were 734 nM and 5000 nM, respectively.

B5: I-172 (peptide)
peptide: XDAXDXAAFVXFWQ
modifications: not fully specified; as printed: Ac-PL3-Asp-Ala-B5-Asp-EtGA-Ala-Ala-Phe-Val-S8-Phe-Trp-Gln-NH2; N-terminal acetyl, C-terminal amide; PL3(1), B5(4), EtGA(6), S8(11); staples PL3-B5 and B5-S8 by olefin metathesis
notes: stapled peptide
Consider B5, for which it took 5000 nM to reach a half-maximal effect in test [3] (EC50).

B6: I-173 (peptide)
peptide: XDAXDXAAFVXFWQ
modifications: not fully specified; as printed: Ac-PL3-Asp-Ala-B5-Asp-EtGA-Ala-Ala-Phe-Val-S8-Phe-Trp-Gln-NH2; N-terminal acetyl, C-terminal amide; PL3(1), B5(4), EtGA(6), S8(11); staples PL3-B5 and B5-S8 by olefin metathesis
notes: stapled peptide
With B6, the EC50 in test [3] was 3120 nM.

B7: I-839 (peptide)
peptide: Ac-[αAllylPro]D[tBuAla][B5(3)]DQAAFN[PyrS2″][3Thi][Bta]H-NH2
modifications: staple 1-4, 4-11
As for B7, in test [4], the “NanoBRET Abs IC50” value was found to be 41900 nM.

B8: I-174 (peptide)
peptide: Ac-[αAllylPro]DI[B5(5)]DDAAFQ[S8]FWH-NH2
modifications: staple 1-4, 4-11
notes: stapled peptide
In the case of B8, the figures for the EC50 in test [2] and in test [3] were 116 nM and 1760 nM, respectively.

B9: I-154 (peptide)
peptide: ADIXDEAAFAXFWA
modifications: not fully specified; as printed: Ac-Ala-Asp-Ile-RdN-Asp-Glu-Ala-Ala-Phe-Ala-S7-Phe-Trp-Ala-NH2; N-terminal acetyl, C-terminal amide; RdN(4), S7(11); staple RdN-S7 by olefin metathesis
notes: stapled peptide
As for B9, the EC50 in test [2] is 828 nM; in test [3] it was 5000 nM.

B10: I-152 (peptide)
peptide: Ac-ADI[RdN″]DEAAFA[S7]FWH-NH2
modifications: staple 4-11
notes: stapled peptide composition
As for B10, the EC50 was determined as 752 nM in test [2] and 5000 nM in test [3].

B11: I-153 (peptide)
peptide: Ac-ADI[RdN(3)]DEAAFQ[S7]FWA-NH2
modifications: staple 4-11
notes: stapled peptide composition
Consider B11, for which the EC50 was found to be 153 nM in test [2] and 2140 nM in test [3].

B12: I-148 (peptide)
peptide: Ac-ADI[RdN″]DEAAFQ[S7]FW-NH2
modifications: staple 4-11
notes: stapled peptide composition
As to B12, the EC50 in test [2] amounted to 398 nM; in test [3] it was 2770 nM.

B13: I-175 (peptide)
peptide: Ac-[αAllylPro]DI[B5(5)]DDAAFQ[S8]FWH-NH2
modifications: staple 1-4, 4-11
notes: stapled peptide
Turning to B13, the EC50 in test [2] was determined as 116 nM; in test [3], 1760 nM.

B14: I-840 (peptide)
peptide: Ac-[αAllylPro]D[tBuAla][B5(3)]D[Cit]AAFN[PyrS2″][3Thi][Bta]Q-NH2
modifications: staple 1-4, 4-11
For the molecule B14, the “NanoBRET Abs IC50” value in test [4] was found to be 22300 nM.
